Experimental findings from patent publication US20170081386A1 (APOGENIX, published 2017) are described below.

Test [1] addresses T1, TRAIL-Receptor 1-Fc (R&D Systems) (UniProt O00220 24-239, limits assumed).
T1 construct: Bought reagent; also called Fc-fusion protein of TRAIL-Receptor 1; not shown: Fc part of the bought fusion
T1 sequence (looked up): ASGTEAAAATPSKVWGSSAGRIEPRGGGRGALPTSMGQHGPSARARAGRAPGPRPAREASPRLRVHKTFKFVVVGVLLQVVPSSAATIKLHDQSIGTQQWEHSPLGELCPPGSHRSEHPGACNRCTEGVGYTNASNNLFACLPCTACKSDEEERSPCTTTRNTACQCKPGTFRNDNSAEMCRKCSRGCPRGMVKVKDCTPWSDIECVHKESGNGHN
Description: Streptactin-ELISA (FIG. 14A), supernatant immobilized, constant concentration of TRAIL-Receptor 1-Fc. As to the method: (§1) To determine the binding of receptors to constructed ligands, streptactin-coated 96-well microplates were used. Therefore, supernatants from transiently transfected HEK293 cells, mouse sera or purified proteins were immobilized on streptactin-plates (IBA GmbH) for 1-3 hours in PBS. Samples were diluted in ELISA binding/blocking buffer (PBS, 0.1% Tween-20, 20% SuperBlock T20-PBS (Pierce)). Plates were washed with PBS+0.1% Tween-20 and incubated with mouse-anti-TRAIL antibody (Pharmingen, clone RIK-2), TRAIL-Receptor 1-Fc (R&D Systems), TRAIL-Receptor 2-Fc (R&D Systems), TACl-Fc (R&D Systems) or HVEM-Fc (R&D Systems) for one hour at room temperature. Plates were again washed and Fc-proteins were detected with anti-human- or anti-mouse-Fc-specific peroxidase-conjugated antibodies (Sigma). Colour reaction was done by addition of 100 μl per well of TMB substrate (Kem-En-Tec Diagnostics) and the absorbance at 450 nm and 630 nm was determined with an ELISA reader after addition of 25 μl of 25% H₂SO₄ as stop-solution. Values were calculated as 450 nm-630 nm with MS Excel.
The selectivity of TRAIL-Receptor 1 or TRAIL-Receptor 2 towards fusion proteins of SPD/ccSPD and TRAIL, TRAILR1mut and TRAILR2mut was shown by Streptactin-ELISA. Therefore, TRAIL-SPD-fusion proteins in supernatants from transiently transfected HEK293 cells were immobilized on Streptactin coated microplates. Cell supernatant from untransfected cells served as negative control. Specifically bound proteins were detected with constant (A, B) or varying (C, D) concentrations of either TRAIL-Receptor 1-Fc or TRAIL-Receptor 2-Fc. As shown in (A), the ligand TRAILR1mut fused to SPD variants is deteced by TRAIL-Receptor 1, whereas the ligand TRAILR2mut is not. As shown in (B), the ligand TRAILR2mut is preferentially detected by TRAIL-Receptor 2, whereas TRAILR1mut-and TRAIL wild-type constructs are equally well detected. As shown in C, TRAIL-Receptor 1-Fc bound to TRAIL-R1 mut-ASPD and TRAIL-ASPD equally well over the whole receptor titration range, whereas TRAIL-R2mut-ASPD is not detected. As shown in D, TRAIL-Receptor 2-Fc bound to TRAIL-R2mut-ASPD and TRAIL-ASPD equally well over the receptor titration range analyzed, whereas the signal for TRAIL-R1mut-ASPD decreased rapidely with decreasing concentrations of receptor.

Test [2] deals with T1, TRAIL-Receptor 1-Fc (R&D Systems). As to the kind of experiment: Streptactin-ELISA, purified trimeric ligand immobilized via Strep-tag II, receptor-Fc detection. As to the method: as §1
Varying concentrations (0-10 microgram/ml) of affinity and SEC purified, trimeric LIGHT-ASPD were used for immobilized via the Strep-tag II on Streptactin-coated microplates. LIGHT-ASPD was then detected in a ELISA set-up using 100 ng/ml of Fc-fusion proteins of the receptors HVEM and TRAIL-Receptor 1, respectively. […]
A general note: In an ELISA, binding on a coated surface is turned into a signal by an enzyme label.

B1: TRAILR2mut-A-CCSPD (ligand)
chain: QRVAAHITGTRGRSNTLSSPNSKNEKALGRKINSWESSRSGHSFLSNLHLRNGELVIHEKGFYYIYSQTQFKFREEIKENTKNDKQMVQYIYKYTSYPDPILLMKSARNSCWSKDAEYGLYSIYQGGIFELKENDRIFVSVTNERLLQMDHEASFFGAFLVGSSGSSGSSGSGLPDVASLRQQVEALQGQVQHLQAAFSQYKKVELFPNGPSSSSSSAWSHPQFEK
notes: it is assembled from the construct description; also called TRAILR2mut (member of the SPD variants)
For B1, the binding result in test [1] is “no binding”.

B2: LIGHT-ASPD (ligand)
chain: EVNPAAHLTGANSSLTGSGGPLLWETQLGLAFLRGLSYHDGALVVTKAGYYYIYSKVQLGGVGCPLGLASTITHGLYKRTPRYPEELELLVSQQSPCGRATSSSRVWWDSSFLGGVVHLEAGEEVVVRVLDERLVRLRDGTRSYFGAFMVGSSGSSGSSGSGLPDVASLRQQVEALQGQVQHLQAAFSQYKKVELFPNGQSVGEKIFKTAGFVKPFTEAQLLCTQAGGQLASPRSAAENAALQQLVVAKNEAAFLSMTDSKTEGKFTYPTGESLVYSNWAPGEPNDDGGSEDCVEIFTNGKWNDRACGEKRLVVCEFGGSPSSSSSSAWSHPQFEK
notes: also called Sp-LIGHT-ASPD; LIGHT fusion protein
Take B2: the binding result in test [2] is listed as “no binding”.

B3: TRAILR2mut-ASPD (ligand)
chain: QRVAAHITGTRGRSNTLSSPNSKNEKALGRKINSWESSRSGHSFLSNLHLRNGELVIHEKGFYYIYSQTQFKFREEIKENTKNDKQMVQYIYKYTSYPDPILLMKSARNSCWSKDAEYGLYSIYQGGIFELKENDRIFVSVTNERLLQMDHEASFFGAFLVGSSGSSGSSGSGLPDVASLRQQVEALQGQVQHLQAAFSQYKKVELFPNGQSVGEKIFKTAGFVKPFTEAQLLCTQAGGQLASPRSAAENAALQQLVVAKNEAAFLSMTDSKTEGKFTYPTGESLVYSNWAPGEPNDDGGSEDCVEIFTNGKWNDRACGEKRLVVCEFGGSPSSSSSSAWSHPQFEK
notes: TRAIL-Receptor 2 selective mutein; homotrimer by SEC; also called Sp-TRAILR2mut-ASPD
For B3, the binding result in test [1] is reported as “no binding”.

B4: TRAILR2mut-D-CCSPD (ligand)
chain: QRVAAHITGTRGRSNTLSSPNSKNEKALGRKINSWESSRSGHSFLSNLHLRNGELVIHEKGFYYIYSQTQFKFREEIKENTKNDKQMVQYIYKYTSYPDPILLMKSARNSCWSKDAEYGLYSIYQGGIFELKENDRIFVSVTNERLLQMDHEASFFGAFLVGSGLPDVASLRQQVEALQGQVQHLQAAFSQYKKVELFPNGPSSSSSSAWSHPQFEK
notes: as for B1
B4: the binding result in test [1] was “no binding”.

B5: TRAILR2mut-D-SPD (ligand)
chain: QRVAAHITGTRGRSNTLSSPNSKNEKALGRKINSWESSRSGHSFLSNLHLRNGELVIHEKGFYYIYSQTQFKFREEIKENTKNDKQMVQYIYKYTSYPDPILLMKSARNSCWSKDAEYGLYSIYQGGIFELKENDRIFVSVTNERLLQMDHEASFFGAFLVGSGLPDVASLRQQVEALQGQVQHLQAAFSQYKKVELFPNGQSVGEKIFKTAGFVKPFTEAQLLCTQAGGQLASPRSAAENAALQQLVVAKNEAAFLSMTDSKTEGKFTYPTGESLVYSNWAPGEPNDDGGSEDCVEIFTNGKWNDRACGEKRLVVCEFGGSPSSSSSSAWSHPQFEK
notes: as for B1
As for B5, the binding result in test [1] is “no binding”.
